US20120052092A1
pKd: −log10 of the molar value.

Key:
[1] = target: factor H binding protein (wild type, variant 1) (UniProt E6MV22); assay: SPR
[2] = target: factor H binding protein (wild type, variant 1) (UniProt E6MV22); assay: SPR; sensorgram
[3] = target: fHbp Variant 2 (Neisseria meningitidis); assay: SPR
[4] = target: fHbp Variant 3 (Neisseria meningitidis); assay: SPR

Sequence of fH678 (P08603 321-509): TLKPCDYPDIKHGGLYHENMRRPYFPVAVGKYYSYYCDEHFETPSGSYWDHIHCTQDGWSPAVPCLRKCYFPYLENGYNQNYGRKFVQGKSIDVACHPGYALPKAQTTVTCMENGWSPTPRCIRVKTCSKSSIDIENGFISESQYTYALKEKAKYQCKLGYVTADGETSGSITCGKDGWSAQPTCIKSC

Row | Substance | pKd [1] | pKd [2] | pKd [3] | pKd [4]
1 | fH678 (from UniProt P08603 321-509) | 8.30 | 8.33 |  | 
2 | FH67 N339E M340S |  |  | 7.36 | 6.78
